Laboratory results as given in patent US7799901B2, “Modulators of the function of FAS receptors and other proteins” (Yeda Research and Development Co. Ltd., priority 1995, dated 2010).

Experiments:
[1] = test system: fragment of MORT-1 corresponding to residues 1-117; assay: Two-hybrid test (FIG. 1), binding to MORT-1 residues 1-117
Excerpt: (§1) To isolate proteins interacting with the intracellular domain of the FAS-R, the yeast two-hybrid system was used (Fields and Song, 1989). […] In this system, the genes for the candidate interacting proteins are cloned into separate expression vectors. In one expression vector, the sequence of the one candidate protein is cloned in phase with the sequence of the GAL4 DNA-binding domain to generate a hybrid protein with the GAL4 DNA-binding-domain, and in the other vector, the sequence of the second candidate protein is cloned in phase with the sequence of the GAL4 activation domain to generate a hybrid protein with the GAL4-activation domain. The two hybrid vectors are then co-transformed into a yeast host strain having a lacZ or HIS3 reporter gene under the control of upstream GAL4 binding sites. Only those transformed host cells (cotransformants) in which the two hybrid proteins are expressed and are capable of interacting with each other, will be capable of expressing the reporter gene. In the case of the lacZ reporter gene, host cells expressing this gene will become blue in color when X-gal is added to the cultures. […]
(§2) In FIG. 1, there is depicted the interaction of the proteins encoded by the Gal4 DNA binding domain and activation-domain constructs (pGBT9 and pGAD-GH) within transfected SFY526 yeasts as assessed by β-galactosidase expression filter assay. […]

FAS-IC = molecular target: T1, FAS-IC (Homo sapiens, UniProt P25445); assay: Two-hybrid test (FIG. 1), binding of MORT-1 fragments to FAS-IC
T1 construct: the FAS-IC extends-from amino acid residues 175-319 of the intact FAS-R; expressed in transfected cells; host or cells: SFY526 yeast
T1 sequence (P25445 191-335): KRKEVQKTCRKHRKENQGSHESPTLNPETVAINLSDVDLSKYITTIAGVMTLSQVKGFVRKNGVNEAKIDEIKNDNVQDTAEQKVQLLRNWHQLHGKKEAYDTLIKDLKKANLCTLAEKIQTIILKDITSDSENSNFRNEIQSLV
Excerpt: as §1, §2

MORT-1 = molecular target: T2, MORT-1 (Homo sapiens, UniProt Q13158, G32V); assay: Two-hybrid test (FIG. 1), binding to full-length MORT-1; set-up: expressed in transfected cells; host or cells: SFY526 yeast
T2 sequence (Q13158 with tags, fused parts or gaps G32V): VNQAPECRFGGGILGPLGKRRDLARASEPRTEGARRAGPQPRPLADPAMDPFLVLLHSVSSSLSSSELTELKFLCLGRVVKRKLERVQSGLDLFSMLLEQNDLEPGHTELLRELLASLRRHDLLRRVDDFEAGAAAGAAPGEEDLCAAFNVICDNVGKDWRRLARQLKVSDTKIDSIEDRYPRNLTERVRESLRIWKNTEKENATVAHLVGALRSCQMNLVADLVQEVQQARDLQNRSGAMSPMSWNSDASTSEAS
Excerpt: To isolate proteins interacting with the intracellular domain of the FAS-R, the yeast two-hybrid system was used (Fields and Song, 1989). […] In this system, the genes for the candidate interacting proteins are cloned into separate expression vectors. In one expression vector, the sequence of the one candidate protein is cloned in phase with the sequence of the GAL4 DNA-binding domain to generate a hybrid protein with the GAL4 DNA-binding-domain, and in the other vector, the sequence of the second candidate protein is cloned in phase with the sequence of the GAL4 activation domain to generate a hybrid protein with the GAL4-activation domain. The two hybrid vectors are then co-transformed into a yeast host strain having a lacZ or HIS3 reporter gene under the control of upstream GAL4 binding sites. Only those transformed host cells (cotransformants) in which the two hybrid proteins are expressed and are capable of interacting with each other, will be capable of expressing the reporter gene. In the case of the lacZ reporter gene, host cells expressing this gene will become blue in color when X-gal is added to the cultures.
(b) retransforming the plasmid DNA and original FAS-IC hybrid plasmid and control plasmids described in (a) into yeast host cells of strain SFY526 and determining the LACZ^+ activity (effectivity of β-gal formation, i.e., blue color formation).
In FIG. 1, there is depicted the interaction of the proteins encoded by the Gal4 DNA binding domain and activation-domain constructs (pGBT9 and pGAD-GH) within transfected SFY526 yeasts as assessed by β-galactosidase expression filter assay. The DNA-binding-domain constructs included four constructs of the human Fas-IC, four constructs of the mouse Fas-IC including two full-length constructs having […] or Ile to Ala replacement mutations at position 225 (I225N and I225A, respectively), and three MORT-1 constructs, all of which are shown schematically on the left hand side of FIG. 1. […]

[2] = test system: FAS-R mediated cell death in HeLa cells; assay: Anti-FAS-R antibody (CH-11) induced death of HeLa cells co-expressing FAS-R, neutral-red uptake; assay type: cell-based; details: co-expression with human FAS-R in HeLa HtTA-1; CH-11 antibody plus 10 μg/ml cycloheximide
Excerpt: In another set of experiments to analyze the region of the MORT-1 protein involved in the binding to the FAS-IC, the following proteins were expressed transiently in HeLa cells that contain a tetracycline-controlled transactivator (HtTA-1), using a tetracycline-controlled expression vector (pUHD10-3): Human FAS-R alone; Human FAS-R as well as the N-terminal part of MORT-1 (amino acids 1-117, the “MORT-1 head”); Human FAS-R as well as the C-terminal part of MORT-1, which contains its ‘death domain’ homology region (amino acids 130-245, the “MORT-1 DD”); FLAG-55.11 (amino acids 309-900 of protein 55.11 fused at the N-terminus to the FLAG octapeptide, the protein 55.11 being a p55-IC-specific binding protein. Twelve hours after transfection, the cells were trypsinized and re-seeded at a concentration of 30,000 cells/well. After 24 hrs further incubation, the cells were treated for 6 hrs with a monoclonal antibody against the extracellular domain of FAS-R (monoclonal antibody CH-11, Oncor, Gaithersburg, Md., USA) at various concentrations (0.001-10 μg/ml monoclonal antibody), in the presence of 10 μg/ml cycloheximide. Cell viability was then determined by the neutral-red uptake assay and the results were presented in terms of % viable cells as compared to cells that had been incubated with cycloheximide alone (in the absence of anti-FAS-R monoclonal antibody CH-11). […]

binding to MORT-1 residues 1-117 in two-hybrid test [1]: does not bind | binding to FAS-IC / FAS-R in two-hybrid test (FAS-IC): does not bind | binding to full-length MORT-1 in two-hybrid test (MORT-1): binds
B1: fragment of MORT-1 corresponding to residues 1-117: N-terminal part of MORT-1, amino acids 1-117 (protein)
chain: VNQAPECRFGGGILGPLGKRRDLARASEPRTEGARRAGPQPRPLADPAMDPFLVLLHSVSSSLSSSELTELKFLCLGRVVKRKLERVQSGLDLFSMLLEQNDLEPGHTELLRELLAS
effect on FAS-induced (FAS-R mediated) cell death [2]: does not interfere
